Data reported in paper PMC5594205 (Molecular Cell, 2017).
Where two headings read alike, the source gives them in different places. One block for each binder: values may come before it.

B1: His6-MBP-Polymerase α (1-109) (domain or fragment, human, UniProt P09884 1-109, looked up)
chain: MAPVHGDDSLSDSGSFVSSRARREKKSKKGRQEALERLKKAKAGEKYKYEVEDFTGVYEEVDEEQYSKLVQARQDDDWIVDDDGIGYVEDGREIFDDDLEDDALDADEK
B2: recombinant human Rad51 (natural protein, UniProt Q06609 1-339, looked up)
chain: MAMQMQLEANADTSVEEESFGPQPISRLEQCGINANDVKKLEEAGFHTVEAVAYAPKKELINIKGISEAKADKILAEAAKLVPMGFTTATEFHQRRSEIIQITTGSKELDKLLQGGIETGSITEMFGEFRTGKTQICHTLAVTCQLPIDRGGGEGKAMYIDTEGTFRPERLLAVAERYGLSGSDVLDNVAYARAFNTDHQTQLLYQASAMMVESRYALLIVDSATALYRTDYSGRGELSARQMHLARFLRMLLRLADEFGVAVVITNQVVAQVDGAAMFAADPKKPIGGNIIAHASTTRLYLRKGRGETRICKIYDSPCLPEAEAMFAINADGVGDAKD

Legend:
Assay in all cases: pull-down
recombinant human Rad51 [1] = molecular target: B2
recombinant human Rad51 [2] = molecular target: B2; remark: listed apart in the source
[3] = molecular target: recombinant human Pol α-primase complex (full-length) (human, UniProt P09884 1-1462; Q14181 1-598; P49642 1-420; P49643 1-509)
Sequence of recombinant human Pol α-primase complex (full-length) (Q14181 whole entry, chain 2 of 3): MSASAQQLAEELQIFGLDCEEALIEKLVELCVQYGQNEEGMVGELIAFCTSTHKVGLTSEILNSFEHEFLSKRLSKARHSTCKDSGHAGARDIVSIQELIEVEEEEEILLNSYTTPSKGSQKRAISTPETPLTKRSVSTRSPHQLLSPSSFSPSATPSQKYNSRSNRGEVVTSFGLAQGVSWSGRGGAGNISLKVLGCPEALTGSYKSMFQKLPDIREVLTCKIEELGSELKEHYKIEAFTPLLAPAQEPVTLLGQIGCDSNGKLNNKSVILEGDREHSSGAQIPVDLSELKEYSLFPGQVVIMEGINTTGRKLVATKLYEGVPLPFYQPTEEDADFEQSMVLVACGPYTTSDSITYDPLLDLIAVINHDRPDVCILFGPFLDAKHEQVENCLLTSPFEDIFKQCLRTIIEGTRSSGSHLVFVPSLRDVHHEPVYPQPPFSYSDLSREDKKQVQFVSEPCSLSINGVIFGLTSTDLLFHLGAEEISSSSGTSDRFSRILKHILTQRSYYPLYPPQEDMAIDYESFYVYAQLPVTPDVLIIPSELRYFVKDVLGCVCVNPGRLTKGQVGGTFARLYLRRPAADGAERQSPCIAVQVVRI
Sequence of recombinant human Pol α-primase complex (full-length) (P49642 whole entry, chain 3 of 3): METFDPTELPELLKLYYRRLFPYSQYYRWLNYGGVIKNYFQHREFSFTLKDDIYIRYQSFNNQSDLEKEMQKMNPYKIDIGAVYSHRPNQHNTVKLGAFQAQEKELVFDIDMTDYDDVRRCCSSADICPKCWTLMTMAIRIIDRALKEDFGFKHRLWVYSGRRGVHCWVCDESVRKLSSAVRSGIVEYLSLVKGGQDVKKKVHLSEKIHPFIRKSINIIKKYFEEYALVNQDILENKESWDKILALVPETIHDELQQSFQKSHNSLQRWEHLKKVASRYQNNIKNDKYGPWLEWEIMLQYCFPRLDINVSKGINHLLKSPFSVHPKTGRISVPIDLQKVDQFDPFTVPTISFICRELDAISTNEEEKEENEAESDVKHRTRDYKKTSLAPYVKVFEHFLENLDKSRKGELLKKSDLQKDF
Sequence of recombinant human Pol α-primase complex (full-length) (P49643 whole entry, chain 4 of 3): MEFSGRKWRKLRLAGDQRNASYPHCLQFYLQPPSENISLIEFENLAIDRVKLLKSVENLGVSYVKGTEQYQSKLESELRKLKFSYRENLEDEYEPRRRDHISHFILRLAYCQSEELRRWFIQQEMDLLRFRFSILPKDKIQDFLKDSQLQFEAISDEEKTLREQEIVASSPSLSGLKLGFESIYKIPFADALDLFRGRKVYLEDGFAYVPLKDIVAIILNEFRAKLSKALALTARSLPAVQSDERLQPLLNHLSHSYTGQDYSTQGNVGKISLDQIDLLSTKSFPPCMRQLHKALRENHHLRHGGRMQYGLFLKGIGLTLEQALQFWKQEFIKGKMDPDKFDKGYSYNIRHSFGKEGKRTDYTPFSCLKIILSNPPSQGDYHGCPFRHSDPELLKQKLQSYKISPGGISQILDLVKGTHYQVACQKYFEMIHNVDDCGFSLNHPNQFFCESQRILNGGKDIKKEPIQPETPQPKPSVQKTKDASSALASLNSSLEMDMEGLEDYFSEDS

Binder: B1
binding result (recombinant human Rad51 [1]): binds

binding result (recombinant human Rad51 [2]): binds
Binder: LLGFHTASGKKVKIAKESLDKVKNLFDE [Brca2 BRC4 peptide]

Binder: B2
binding result [3]: binds
